Test results from doi:10.1101/2021.08.25.457680.
Where no end group is shown, it is not given here.

Legend:
[1] = target: hDLG1 PDZ1+2 tandem (human) (UniProt Q12959); experiment: NMR titration
[2] = target: hDLG1 PDZ1 domain (human); experiment: NMR titration
[3] = target: syntenin-1 PDZ1 domain (human); experiment: NMR titration
[4] = target: syntenin-1 PDZ2 domain (human); experiment: NMR titration
[5] = target: hDLG1 PDZ1 domain (human); experiment: ITC
[6] = target: hDLG1 PDZ2 domain (human); experiment: ITC
Sequence of hDLG1 PDZ2 domain (human) (Q12959 219-551): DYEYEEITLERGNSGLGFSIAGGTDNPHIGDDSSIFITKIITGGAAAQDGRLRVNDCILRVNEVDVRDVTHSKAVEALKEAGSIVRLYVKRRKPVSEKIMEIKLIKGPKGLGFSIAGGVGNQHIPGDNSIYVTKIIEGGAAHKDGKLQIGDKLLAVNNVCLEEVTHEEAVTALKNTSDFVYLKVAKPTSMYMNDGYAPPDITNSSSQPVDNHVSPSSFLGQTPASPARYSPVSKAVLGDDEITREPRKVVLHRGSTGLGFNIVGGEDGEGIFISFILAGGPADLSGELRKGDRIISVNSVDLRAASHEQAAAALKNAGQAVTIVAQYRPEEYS

Sequence of hDLG1 PDZ1 domain (human) (Q12959 219-551): as above
Sequence of syntenin-1 PDZ2 domain (human) (O00560 whole entry, the tested form may be a part): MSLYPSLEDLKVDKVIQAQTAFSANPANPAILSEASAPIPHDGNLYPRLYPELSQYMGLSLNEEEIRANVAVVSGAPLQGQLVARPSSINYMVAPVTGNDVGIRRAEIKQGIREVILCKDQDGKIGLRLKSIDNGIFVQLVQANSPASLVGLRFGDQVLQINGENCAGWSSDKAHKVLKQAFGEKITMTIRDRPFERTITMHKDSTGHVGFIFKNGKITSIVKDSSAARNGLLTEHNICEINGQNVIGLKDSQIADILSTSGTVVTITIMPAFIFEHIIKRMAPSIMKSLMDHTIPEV
Sequence of syntenin-1 PDZ1 domain (human) (O00560 whole entry, the tested form may be a part): as above

Tax2 10mer peptide (last 10 amino acids of Tax-2)
Kd [1]: > 5000 µM

SEKHFRETEV (not fully specified (C-terminus)) [C-terminally amidated Tax-1 10mer peptide (Tax-1mod)]
Kd [2]: 951 µM

SEKHFRETEV [Tax-1 10mer peptide (last 10 C-terminal amino acids of Tax-1)]
Kd [3]: 2580 µM | Kd [4]: 1550 µM | Kd [5]: 2.7 µM | dH [5]: -8 kcal/mol | stoichiometry N [5]: 1.03 | Kd [6]: 0.9 µM | dH [6]: -10.4 kcal/mol | stoichiometry N [6]: 0.99
